Measured values reported in PMC10739154, “Reinvestigation of Disulfide-bonded Oligomeric Forms of the Unfolded Protein Response Transducer ATF6” (Cell Structure and Function, 2019).
Blank lines part the entries; values can stand above or below the substance they belong to.

Columns and labels:
Assay in all cases: non-reducing SDS-PAGE with immunoblotting; ATF6α-TAP constructs of various lengths at the N-terminus in HCT116 DKO cells; lysates on non-reducing SDS-PAGE; blot with anti-Myc; shows disulfide-bonded forms
[1] = target: C467A mutant of ATF6α(Δ355)-TAP (human)
[2] = target: C467A mutant of ssATF6α(C)-TAP (human)
[3] = target: C618A mutant of ATF6α(Δ331)-TAP (human)
[4] = target: C618A mutant of ATF6α(Δ355)-TAP (human)
[5] = target: C618A mutant of ssATF6α(C)-TAP (human)

- stoichiometry N [2]: 2
Substance: C467A mutant of ssATF6α(C)-TAP (domain or fragment)

- stoichiometry N [3]: 2
Substance: C618A mutant of ATF6α(Δ331)-TAP (domain or fragment)

The remaining lines, values behind:

Substance: C467A mutant of ATF6α(Δ355)-TAP (domain or fragment)
- stoichiometry N [1]: 2

Substance: C618A mutant of ATF6α(Δ355)-TAP (domain or fragment)
- stoichiometry N [4]: 2

Substance: C618A mutant of ssATF6α(C)-TAP (domain or fragment)
- stoichiometry N [5]: 2
